From the RNAGym collection of RNA variant scans (doi:10.7554/elife.90254)

B1: OR4K15 (parent)
chain: GUUAACGGUCAUAGGCCAUGGAAACUAGGAGCACCAUUUCGCUGCCAGUGAAGAAAUGAACAAAGAAAAUCUGGGCCAGGCAGGCAUCAAAAGAAAUAGUCUUGCGCUCAACCAGAAAGUCUGUAAUCAUUUUAAGGGUA

Variants of: B1
Assay: self-cleavage, relative activity (ratio to wild type); higher = more cleavage; in vitro, sequencing; the parent is a self-cleaving ribozyme

Variant | self-cleavage
A90G C101U | 0.21
U87C C105A | 0.02
U9A U70C | 1.07
C61G A110G | 0.41
U2C C128A | 0.85
A36G A51G | 0.9
U39C A116C | 0.07
A30G A118G | 1.2
A114U A116U | 0.03
C34A U43A | 1.8
A27G A118G | 0.47
A118G C121U | 1.94
U38G A54G | 1.38
A11G A64U | 0.97
A59U U127G | 1.12
A64G U130C | 0.45
A91C A129G | 1.15
U39C U102C | 2.19
A60G U127G | 1.52
A23C | 0.9
A63G U103G | 0.01
U2C G84A | 1.46
C112U A117G | 0.01
A33G A55G | 0.85

Variant | self-cleavage
A62G U100C | 2.17
A5G G99A | 0.66
A56G A66U | 0.92
U102C A110G | 0.15
A67G A125G | 0.57
U38G | 1.59
A13G A52U | 0.84
A54C U87C | 1.45
G21C A68G | 2.19
C61U U132C | 1.89
C61U G136A | 2.1
C46U A89U | 1.71
U19A U102A | 0.97
A51G A92G | 1.45
A59C U132C | 1.64
U38A A52G | 1.63
U102A U124C | 0.88
U12A A95G | 1.29
U43A U133C | 2.13
A60G G104A | 0.02
U43C C121U | 2.03
A13G G20A | 0.94
A67G U102A | 1.3
A51G U70A | 1.23

Variant | self-cleavage
G106U U108A | 0.01
U19C C34U | 0.91
A24G G41U | 1.18
G115A | 0.12
U38C U132C | 1.64
A56G U57C | 1.27
C25U A47U | 1.35
A118G A140C | 1.36
A52C A66G | 1.59
A55U A59G | 0.75
A5G U49A | 0.9
A22G A52G | 0.91
A13U A30G | 1.26
A55U A91G | 1.73
U100G | 1.24
A96G U127C | 0.58
A66U A91G | 0.65
A47G A64U | 1.26
C77U U108C | 0.03
A59G C105U | 0.17
A55G A95G | 1.92
A114U A129G | 0.06
A5G U122C | 0.91
A18U A33G | 0.61

Variant | self-cleavage
C6A A33U | 1.06
A23G U49G | 1.02
A33U A59C | 2.23
A51G U120C | 0.85
G80A A129G | 0.09
U49C A69U | 2
C17U A94G | 1.32
A67G U97C | 1.74
G106A A111G | 0.01
U38C C101U | 0.35
U49C U133A | 1.29
A92G U108C | 0.01
G21A A36G | 1.9
A62G A69G | 0.68
A118G A134G | 0.71
U122A A125G | 0.55
A27G A67U | 2.19
A11G C46U | 0.77
A54G C76G | 0.22
A67G U124A | 0.87
C42U A117G | 2.46
U26A A140G | 2.37
A47U A91G | 0.88
C16U A66U | 1.27

Variant | self-cleavage
A62G U132A | 1.9
A90G A118U | 0.45
A5G A82G | 0.68
U39A A114G | 0.77
G15A U122C | 0.95
U127A U133C | 2.29
G79A A94G | 0.15
U70C A135G | 1.14
C10U G14U | 0.49
A62U A89G | 1.95
A62G A110G | 0.16
A5U C42A | 1.82
A96G A111U | 0.11
A91G U124A | 1.78
A18G U127A | 1.64
A52U U120C | 1.21
A51G A135G | 1.7
A11G U87C | 1.14
U49A A125G | 0.82
A64G A114U | 0.1
A60G A78G | 0.23
C35U | 1.06
A18G A59G | 1.19
A13C A51U | 1.65

Variant | self-cleavage
U3C U97C | 1.12
A11U A24G | 1.7
U9A U132C | 0.79
G7A A60G | 2.29
A60G A66G | 1.15
A110G A117G | 0.16
A11G A114U | 0.15
U38C A134G | 1.74
U9C U57C | 1.07
U57C C101A | 0.1
A68G A110U | 1.49
A116G A134U | 0.2
A52C A114G | 0.25
U49A A68G | 0.95
A54G C88U | 1.51
A98C A117G | 2.47
A91G U139A | 1.64
C77U A89U | 2.73
A63U | 0.82
G119U U132C | 1.41
A91G A95G | 1.76
A11C U127C | 0.83
A4U A47G | 0
A116G A140U | 0.92

Variant | self-cleavage
A116G A140G | 0.97
A24G A86G | 1.19
A18U A62U | 1.56
A66U A129G | 0.39
U12G A86G | 0.92
U70A U120C | 0.41
C112G | 0.02
G74U | 0.05
A11U C16U | 2.22
C6U A11G | 0.47
U100C U108C | 0.01
U57C A82U | 0.21
A24G A30G | 1.01
A30G A59G | 1.5
U38C U103C | 1.18
A66G A126U | 1.54
U19A A89G | 0.78
A111G G137A | 0.02
U37C U39C | 1.72
A5U U102A | 1.12
C34A A92C | 0.26
A33G A54G | 1.06
C61U A94G | 1.63
